How the values were obtained:
O=C(O)c1ccc(O)c(O)c1 = assay: purified protein; type: biochemical, Xylophilus ampelinus; conditions: apparent, 0.25 mM NADPH, 20 mM Tris-HCl pH 7.9, 25 °C
O=C(O)c1ccc(O)cc1 = assay: purified protein; type: biochemical, Xylophilus ampelinus; conditions: apparent, 0.25 mM NADPH, 20 mM Tris-HCl pH 7.9, 25 °C

Row | Substance | Km (O=C(O)c1ccc(O)c(O)c1) | Km (O=C(O)c1ccc(O)cc1)
1 | XaPobA (Xylophilus ampelinus; C347T) | 3.2 ± 1.0 × 10^−1 mM | 9.1 ± 3.4 × 10^−1 mM
2 | XaPobA (Xylophilus ampelinus; M210A) | 9.6 ± 0.3 × 10^−1 mM | –
3 | XaPobA (Xylophilus ampelinus; W201A) | 6.5 ± 2.7 × 10^−1 mM | –
4 | XaPobA (Xylophilus ampelinus; W201Y) | 5.0 ± 1.1 × 10^−1 mM | 7.2 ± 2.2 × 10^−2 mM

Reference: article PMC10770758, “Protocatechuate hydroxylase is a novel group A flavoprotein monooxygenase with a unique substrate recognition mechanism” (The Journal of Biological Chemistry, 2023)
